“And” between values parts separate entries of the source, which are not always exact repeats. Identical values can stand only once. Like-named read-outs stand apart in the source and are kept apart here. Square brackets hold non-standard residues; d marks the D form. Ends that are not written are not given here.
Legend:
[1] = target: T1, ST receptor (rat intestinal membrane) (rat), P23897
T1 chain: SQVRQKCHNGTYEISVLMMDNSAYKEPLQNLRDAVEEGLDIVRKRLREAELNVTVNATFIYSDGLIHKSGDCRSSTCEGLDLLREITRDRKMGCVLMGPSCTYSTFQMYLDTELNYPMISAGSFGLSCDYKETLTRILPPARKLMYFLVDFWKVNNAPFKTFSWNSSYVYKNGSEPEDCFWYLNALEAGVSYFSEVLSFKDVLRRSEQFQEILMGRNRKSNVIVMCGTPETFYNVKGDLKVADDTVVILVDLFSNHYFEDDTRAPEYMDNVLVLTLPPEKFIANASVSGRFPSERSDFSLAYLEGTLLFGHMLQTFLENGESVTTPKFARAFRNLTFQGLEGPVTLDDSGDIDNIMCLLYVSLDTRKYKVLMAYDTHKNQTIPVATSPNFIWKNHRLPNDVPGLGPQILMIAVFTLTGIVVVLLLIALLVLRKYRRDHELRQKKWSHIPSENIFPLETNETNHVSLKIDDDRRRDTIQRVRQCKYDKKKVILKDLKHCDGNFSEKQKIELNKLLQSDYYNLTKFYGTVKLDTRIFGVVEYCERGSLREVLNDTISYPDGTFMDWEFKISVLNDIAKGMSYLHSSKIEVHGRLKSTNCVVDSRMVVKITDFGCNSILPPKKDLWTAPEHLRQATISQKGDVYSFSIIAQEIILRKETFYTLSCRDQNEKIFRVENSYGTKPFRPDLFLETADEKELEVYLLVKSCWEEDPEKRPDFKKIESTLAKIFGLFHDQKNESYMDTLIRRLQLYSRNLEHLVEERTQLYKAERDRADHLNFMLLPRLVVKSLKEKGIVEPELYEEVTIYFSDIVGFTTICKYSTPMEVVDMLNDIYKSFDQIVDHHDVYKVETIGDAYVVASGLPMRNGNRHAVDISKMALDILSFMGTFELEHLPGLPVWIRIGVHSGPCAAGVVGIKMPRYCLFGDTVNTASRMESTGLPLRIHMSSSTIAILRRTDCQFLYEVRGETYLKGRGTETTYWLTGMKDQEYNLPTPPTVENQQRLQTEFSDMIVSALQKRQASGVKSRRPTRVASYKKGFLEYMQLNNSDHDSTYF

[2] = target: T1, ST receptor (rat intestinal membrane) …; assay: radioligand competition binding against [125I]ST1-17 on rat intestinal membrane
[3] = target: T1, ST receptor (rat intestinal membrane) …; assay: radioactive binding assay, labelled compound ca. 0.05 nM on rat intestinal membrane, filtration

Binder	Ki [2]	also measured
CCELCCNPACAGCY (modifications not checked) [CA1-ST5-18]	2.8 nM	Ki [1]: 2.8 nM and 3.5 nM; fold reduction in binding efficacy against the unconjugated ST peptide [2]: 10 fold
KKKKKKGCCELCCNPACAGCY (modifications not checked) [CA1-(Lys)6-Gly-ST5-18]	72 nM	
GGG[dE][dE][dE]CCELCCNPACAGCY (not fully specified (N-terminus); cysteine pairing not given here) [CA1-(Gly)3-(D-Glu)3-ST5-18]	1 nM	
CCELCCNPACAGCY (modifications not checked) [99mTc-labelled CA1-ST5-18]		binding, % of total added [3]: 6%
CCELCCNPACAGCY (modifications not checked) [ST5-18]	0.4 nM	
CCELCCNPACAGCY (modifications not checked) [CA3-ST5-18]	0.8 nM	

Reference: patent US20060222593A1
